Experiment [1] concerns the target T1, human B7-H4-Fc (human).
T1 construct: also called hB7-H4-Fc; hB7-H4 Fc
In words: ELISA, coated hB7-H4-Fc. How it is done: (§1) ELISA experiments were performed to determine binding to hB7-H4-Fc (FIG. 5A), hB7-H4-his (FIG. 5B), mB7-H4-Fc domain (FIG. 5C), hB7-H4 IgV domain (FIG. 5D), and hB7-H4 IgC domain (FIG. 5E). Flow cytrometry experiments were performed to determine binding to CHO cells expressing hB7-H4 (FIG. 5F) or mB7-H4 (FIG. 5G). […] A cross-reactive IgV binding antibody and an IgC binding antibody were used as controls.
(§2) About 1-2 μg/ml of human or mouse B7-H4-Fc (or his-tagged) was immobilized on ELISA plates (Immuno 2HB, Thermo scientific, cat #3455) at 4° C. overnight. After blocking the plates with 3% PBS+milk, serial diluted antibodies were added to the blocked plates and incubated at RT for 1-1.5 h. After washing the plates with PBS-T (0.05%), horse radish peroxidase (HRP)-conjugated antibody targeting the hFab was added to the plate. Signals were developed by adding 3,3′,5,5′-Tetramethylbenzidine (TMB (followed 1N of H₂SO₄ to stop the reaction. The OD at 450 nm was read by ELISA plate reader (Infinite M1000 from TECAN). GraphPad from Prism was used to plot OD450 vs. antibody concentration curve and to calculate the EC50 values.

Experiment [2] concerns the target T2, human B7-H4-his (human, UniProt Q7Z7D3 25-259).
T2 construct: also called hB7-H4-his; hB7-H4 his; not shown: his tag
T2 sequence: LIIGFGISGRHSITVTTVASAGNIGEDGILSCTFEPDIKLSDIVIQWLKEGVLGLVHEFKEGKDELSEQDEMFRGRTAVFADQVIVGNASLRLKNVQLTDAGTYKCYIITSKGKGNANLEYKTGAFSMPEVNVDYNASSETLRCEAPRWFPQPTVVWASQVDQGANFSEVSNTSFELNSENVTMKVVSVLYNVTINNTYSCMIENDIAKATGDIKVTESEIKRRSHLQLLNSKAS
In words: ELISA, coated hB7-H4-his. Summed up:
(§3)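 Human or mouse B7-H4-Fc (or his-tagged), about 1-2 μg/ml, was coated overnight at 4° C and blocked with 3% PBS+milk. Serially diluted antibodies bound for 1-1.5 h at RT, detected with HRP-conjugated anti-hFab and TMB, stopped with 1N H₂SO₄. EC50 came from OD450 versus antibody concentration curves.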
Background: ELISA stands for enzyme-linked immunosorbent assay.

Experiment [3] addresses T1, human B7-H4-Fc. Kind of experiment: ELISA on coated hB7-H4-Fc. How it is done: as §2
The target in experiment [4] is T3, mouse B7-H4-Fc (mouse; human).
T3 construct: also called mB7-H4-Fc; mB7-H4-hFc
T3 sequence (chain, as listed by the source): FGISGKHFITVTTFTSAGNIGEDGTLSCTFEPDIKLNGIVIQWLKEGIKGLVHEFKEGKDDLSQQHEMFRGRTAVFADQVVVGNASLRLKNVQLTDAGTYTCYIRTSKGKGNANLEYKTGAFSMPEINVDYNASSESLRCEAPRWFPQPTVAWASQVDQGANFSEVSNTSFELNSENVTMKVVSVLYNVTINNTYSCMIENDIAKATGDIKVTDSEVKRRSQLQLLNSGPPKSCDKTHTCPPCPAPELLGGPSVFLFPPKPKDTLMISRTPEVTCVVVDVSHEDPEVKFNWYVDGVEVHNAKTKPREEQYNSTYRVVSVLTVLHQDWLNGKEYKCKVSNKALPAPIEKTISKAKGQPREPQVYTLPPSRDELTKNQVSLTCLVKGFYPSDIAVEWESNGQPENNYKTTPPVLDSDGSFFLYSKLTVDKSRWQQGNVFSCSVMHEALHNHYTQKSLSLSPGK
Kind of experiment: ELISA on coated mB7-H4-Fc. The protocol:
as §2

Experiment [5] concerns the target T4, mouse B7-H4-his (mouse, UniProt Q7TSP5 25-257).
T4 construct: also called mB7-H4-his; mB7-H4-His; not shown: his tag
T4 sequence: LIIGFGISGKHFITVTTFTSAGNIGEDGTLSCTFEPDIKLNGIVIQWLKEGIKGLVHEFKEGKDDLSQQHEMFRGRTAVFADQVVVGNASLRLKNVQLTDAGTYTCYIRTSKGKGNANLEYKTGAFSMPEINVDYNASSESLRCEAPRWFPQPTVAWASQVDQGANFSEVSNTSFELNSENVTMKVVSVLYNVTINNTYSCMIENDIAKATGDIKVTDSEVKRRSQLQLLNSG
In words: ELISA on coated mB7-H4-his. How it is done: as §2

Experiment [6] has as its target T2, human B7-H4-his. In words: ELISA on coated hB7-H4-his. The protocol:
as §2

The target in experiment [7] is T5, IgV domain of human B7-H4-Fc (human).
T5 construct: also called hB7-H4 IgV domain
T5 sequence (chain, as listed by the source): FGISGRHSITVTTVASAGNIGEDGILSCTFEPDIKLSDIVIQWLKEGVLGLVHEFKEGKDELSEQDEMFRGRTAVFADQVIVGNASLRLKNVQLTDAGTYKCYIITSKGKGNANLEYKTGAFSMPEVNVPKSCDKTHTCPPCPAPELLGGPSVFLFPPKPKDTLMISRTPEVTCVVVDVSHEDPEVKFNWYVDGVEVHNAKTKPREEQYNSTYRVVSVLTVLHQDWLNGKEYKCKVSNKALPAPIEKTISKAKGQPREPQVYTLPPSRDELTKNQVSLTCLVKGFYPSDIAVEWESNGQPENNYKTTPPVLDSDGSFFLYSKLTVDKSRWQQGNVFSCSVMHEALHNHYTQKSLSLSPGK
In words: ELISA, coated hB7-H4 IgV domain. The protocol:
as §1, §2

Experiment [8] addresses T6, IgV domain of mouse B7-H4-Fc (mouse; human).
T6 construct: also called mB7-H4 IgV domain
Kind of experiment: ELISA on coated IgV domain of mB7-H4.

Experiment [9] has as its target T5, IgV domain of human B7-H4-Fc. Kind of experiment: ELISA on coated IgV domain of hB7-H4. The protocol:
as §2

The target of experiment [10] is T3, mouse B7-H4-Fc. In words: ELISA, coated mB7-H4-Fc (title on the sheet: Binding to mB7H4-Fc). The protocol:
ELISA experiments were performed to determine binding to hB7-H4-Fc (FIG. 4A), hB7-H4-his (FIG. 4B), hB7-H4 IgV domain (FIG. 4C), and mB7-H4 IgV domain (FIG. 4D). Flow cytrometry experiments were performed to determine binding to CHO cells expressing hB7-H4 (FIG. 4E) or mB7-H4 (FIG. 4F). […] A cross-reactive IgV binding antibody was used as a control.
as §2

For experiment [11], the target named is T7, hB7-H4 (soluble human B7-H4, construct not named) (human, UniProt Q7Z7D3 25-259, limits assumed).
T7 construct: also called soluble hB7-H4
T7 sequence: T2 sequence
In words: ELISA, hB7-H4. Summed up: as §3

Experiment [12] has as its target T8, mB7-H4 (soluble mouse B7-H4, construct not named) (mouse, UniProt Q7TSP5 25-257, limits assumed).
T8 sequence: T4 sequence
In words: ELISA, mB7-H4. Summed up:
as §3

The target in experiment [13] is T9, human B7-H4 expressed on cells (human, UniProt Q7Z7D3 25-282).
T9 construct: Transfected CHO cells or tumor cell lines that carry hB7-H4; also called cellular hB7-H4
T9 sequence: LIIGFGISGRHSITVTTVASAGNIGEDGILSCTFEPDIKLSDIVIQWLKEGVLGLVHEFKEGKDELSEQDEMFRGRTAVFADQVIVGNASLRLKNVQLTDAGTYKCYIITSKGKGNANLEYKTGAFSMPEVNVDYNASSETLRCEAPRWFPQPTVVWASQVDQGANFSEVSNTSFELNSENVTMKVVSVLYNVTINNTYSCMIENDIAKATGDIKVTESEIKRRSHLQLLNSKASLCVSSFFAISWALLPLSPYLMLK
In words: flow cytometry, MX-1 cells. The protocol: Cells were harvested, washed once, and then re-suspended to the concentration of 1×10⁶ cells/ml in ice cold FACS Buffer. 25 μl of cell suspension was added to each well of a 96-well round-bottom microliter plate. Serially diluted antibodies or fusion proteins were added to each well and incubated for 1 hour at 4° C. Cells were washed three times by centrifugation at 1500 rpm for 5 minutes, and then stained with secondary antibody (1:200 dilution) for 30 min at 4° C. in the dark. Cells were washed once, re-suspended in 100 μl PBS buffer and then analyzed using Guava Flow Cytometry EasyCyte system.
(In general: Flow cytometry measures light scatter and fluorescence of single cells or particles in a stream.)

Experiment [14] has as its target T10, mouse B7-H4 expressed on cells (mouse, UniProt Q7TSP5 25-257).
T10 construct: also called cellular mB7-H4; mB7-H4/CT26
T10 sequence: T4 sequence
Kind of experiment: flow cytometry, mB7-H4/CT26 cells. Summed up:
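Binding titrations: test proteins in serial dilution incubated on cells for 1 h at 4 °C in ice-cold FACS buffer. Detection with secondary antibody diluted 1:200.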

T1 sequence (chain, as listed by the source): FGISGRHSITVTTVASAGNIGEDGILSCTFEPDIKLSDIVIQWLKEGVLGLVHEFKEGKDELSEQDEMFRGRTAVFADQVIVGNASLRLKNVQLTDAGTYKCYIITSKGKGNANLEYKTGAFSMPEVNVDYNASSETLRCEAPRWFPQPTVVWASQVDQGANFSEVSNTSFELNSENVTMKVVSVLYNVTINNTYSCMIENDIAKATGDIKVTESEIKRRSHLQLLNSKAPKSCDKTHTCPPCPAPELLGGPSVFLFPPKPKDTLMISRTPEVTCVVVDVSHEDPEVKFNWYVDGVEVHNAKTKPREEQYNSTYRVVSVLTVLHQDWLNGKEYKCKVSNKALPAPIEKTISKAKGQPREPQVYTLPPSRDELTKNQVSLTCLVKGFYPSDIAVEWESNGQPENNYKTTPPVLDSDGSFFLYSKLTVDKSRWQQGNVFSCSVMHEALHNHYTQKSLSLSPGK
T6 sequence (chain, as listed by the source): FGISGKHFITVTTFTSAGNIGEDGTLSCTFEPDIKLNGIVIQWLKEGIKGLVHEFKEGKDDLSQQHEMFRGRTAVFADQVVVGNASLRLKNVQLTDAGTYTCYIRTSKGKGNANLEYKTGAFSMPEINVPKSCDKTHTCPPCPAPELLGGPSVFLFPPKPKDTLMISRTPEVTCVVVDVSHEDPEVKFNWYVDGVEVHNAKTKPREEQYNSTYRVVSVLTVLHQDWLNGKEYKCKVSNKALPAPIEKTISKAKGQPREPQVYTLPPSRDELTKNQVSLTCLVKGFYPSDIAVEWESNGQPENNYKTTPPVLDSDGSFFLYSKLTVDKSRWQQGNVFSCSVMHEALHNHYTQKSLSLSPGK

B1: Control antibody 1 (antibody 20502 described in US20190085080A1) (antibody, V domains shown)
VH: QLQLQESGPGLVKPSETLSLTCTVSGGSIKSGSYYWGWIRQPPGKGLEWIGNIYYSGSTYYNPSLRSRVTISVDTSKNQFSLKLSSVTAADTAVYYCAREGSYPNQFDPWGQGTLVTVSS
VL: EIVMTQSPATLSVSPGERATLSCRASQSVSSNLAWYQQKPGQAPRLLIYGASTRATGIPARFSGSGSGTEFTLTISSLQSEDFAVYYCQQYHSFPFTFGGGTKVEIK
notes: also called (+) control Ab1; (+) Ab1
One may read the EC50 (read off the curve) as the concentration giving half of the maximal effect. In the case of B1, the half-maximal effective concentration (EC50 (read off the curve)) in experiment [1] is roughly 0.07 nM; in experiment [2], roughly 0.2 nM; in experiment [3], roughly 0.1 nM; in [4] it was roughly 0.1 nM; in [5] it was roughly 0.2 nM; in experiment [6] it was roughly 0.2 nM. The 50% effective concentration (EC50 (read off the curve)) in experiment [7] was roughly 0.2 nM; in [8], roughly 0.4 nM; in [9], roughly 0.2 nM; in experiment [10] it was roughly 0.02 µg/mL.

B2: 39A11/57G8 (antibody, human IgG1, V domains shown)
VH: EVQLLESGGGLVQPGGSLRLSCAASGFTFSSYGMHWVRQAPGKGLEWVASISSSSGYIYYADSVKGRFTISRDNSKNTLYLQMNSLRAEDTAVYYCARASSGMDVWGQGTTVTVSS
VL: DIQMTQSPSSLSASVGDRVTITCRASQSIRSYLNWYQQKPGKAPKLLIYYASSLQSGVPSRFSGSGSGTDFTLTISSLQPEDFATYYCQQYYSTPLTFGQGTKVEIK
notes: 39A11 VH with 57G8 VL
By EC50 is commonly meant the midpoint of the concentration-response curve. A higher EC50 goes with a less potent agent. Take B2: the 50% effective concentration (EC50) was 0.068 nM in experiment [11], 0.096 nM in experiment [12], 8.87 nM in [13] and 1.22 nM in experiment [14]. Also, the half-maximal effective concentration (EC50 (read off the curve)) in experiment [5] is roughly 0.1 nM; in experiment [8], roughly 0.07 nM.

The record behind these values is patent US20230312724A1 (KADMON, published 2023).
